Results on 1 molecule are retold here after patent US12404345B2, “Humanized antibodies against iRHOM2” (SCIRHOM GMBH, priority 2021, dated 2025).

For the experiment, the target named is T1, endogenous iRhom2 on RPMI-8226 cells (Homo sapiens, UniProt Q6PJF5).
T1 construct: RPMI-8226 cells, a human B lymphocytic cell line endogenously expressing iRhom2; host or cells: RPMI-8226
T1 sequence (Q6PJF5 1-856): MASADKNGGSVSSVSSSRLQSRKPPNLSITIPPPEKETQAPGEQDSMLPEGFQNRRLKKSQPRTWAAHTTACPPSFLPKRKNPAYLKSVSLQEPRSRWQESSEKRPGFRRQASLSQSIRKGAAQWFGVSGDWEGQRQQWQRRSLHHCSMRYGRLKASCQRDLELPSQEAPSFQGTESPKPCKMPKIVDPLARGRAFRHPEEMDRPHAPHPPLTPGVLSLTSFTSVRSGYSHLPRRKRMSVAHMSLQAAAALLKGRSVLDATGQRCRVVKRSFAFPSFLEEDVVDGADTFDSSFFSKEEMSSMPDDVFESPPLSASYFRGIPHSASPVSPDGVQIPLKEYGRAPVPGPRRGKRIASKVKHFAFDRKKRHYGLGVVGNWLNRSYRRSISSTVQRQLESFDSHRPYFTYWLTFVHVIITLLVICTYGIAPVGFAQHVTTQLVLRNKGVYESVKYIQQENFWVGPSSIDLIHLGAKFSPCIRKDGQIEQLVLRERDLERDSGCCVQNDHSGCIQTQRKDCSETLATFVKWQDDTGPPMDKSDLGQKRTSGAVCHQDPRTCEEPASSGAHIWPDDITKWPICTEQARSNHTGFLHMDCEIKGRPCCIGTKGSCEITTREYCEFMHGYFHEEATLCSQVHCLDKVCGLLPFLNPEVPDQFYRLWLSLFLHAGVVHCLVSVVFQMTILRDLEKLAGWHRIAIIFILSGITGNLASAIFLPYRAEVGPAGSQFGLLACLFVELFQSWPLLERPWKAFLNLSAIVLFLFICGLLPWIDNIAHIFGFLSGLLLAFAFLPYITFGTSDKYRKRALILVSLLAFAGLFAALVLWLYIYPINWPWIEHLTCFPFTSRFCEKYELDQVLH
As to the kind of experiment: FACS binding to RPMI-8226 cells endogenously expressing iRhom2. As to conditions: antibody at 3 μg/ml. The method, then: In this study, binding specificity analyses of the humanized antibody 42-B-02 as a representative example of the antibodies of the invention in cell lines endogenously expressing iRhom2 were performed. The studies were conducted on RPMI-8226 cells, a human B lymphocytic cell line endogenously expressing iRhom2 but being endogenously negative for iRhom1, on THP-1 cells, a human monocytic cell line endogenously expressing both iRhom2 and iRhom1 and on RH-30 cells, a human […] cell line endogenously negative for iRhom2 but endogenously expressing iRhom1.
In brief, human RPMI-8226 cells (Deutsche Sammlung von Mikroorganismen und Zellkulturen, Germany), THP-1 cells (American Type Culture Collection, USA) and RH-30 cells (Deutsche Sammlung von Mikroorganismen und Zellkulturen, Germany) were harvested with 10 mM EDTA in PBS, washed and resuspended in FACS buffer (PBS, 3% FBS, 0.05% sodium azide), and seeded in Nunc U-bottom 96-well plates (Thermo Fisher Scientific, USA) at approximately 2×10^5 cells per well. In order to pellet cells and remove supernatants, the plates were centrifuged at 1,500 rpm and 4° C. for 3 minutes. […] Finally, cells were resuspended in 150 μl per well of FACS buffer and analyzed using a BD Accuri™ C6 Plus flow cytometer (Becton Dickinson, Germany).
(A flow cytometer gives signals particle by particle.)

B1: 42-B-02: humanized antibody binding human iRhom2; HCVD SEQ ID NO 33, LCVD SEQ ID NO 37 (antibody, V domains shown)
VH: QVTLRESGPALVKPTQTLTLTCTFSGFSLSTFGRGVGWIRQPPGKALEWLAHIWWDDEKYYNSALKSRLTISKDTSKNQVVLTITNMDPVDTATYYCARIQNYGSNYWYFDVWGQGTLVTVSS
VL: AIQLTQSPSSLSASVGDRVTITCRASSRISYMFWYQQKPGKAPKVLIYDTSNLASGVPSRFSGSGSGTDYTLTISSLQPEDFATYYCQQWNSYPLTFGQGTKLEIK
modifications: antibody sequences
On to B1, for which the “binding to RPMI-8226 cells (endogenously expressing iRhom2, negative for iRhom1)” value is “strong binding”.
